Assay results published in the Immune Epitope Database (IEDB).

Legend:
[1] = target: HLA-C*07:02; experiment: IEDB peptide-MHC binding, purified MHC/direct/fluorescence; filed as Kd, often an IC50 or EC50 that approximates it; ≥ and ≤ were set here for values at or beyond the usual limits of such assays; details: source organism: Salmonella enterica subsp. enterica serovar Typhi str. CT18
[2] = target: HLA-A*02:01; experiment: IEDB peptide-MHC binding, purified MHC/competitive/fluorescence; filed as Kd, often an IC50 or EC50 that approximates it; ≥ and ≤ were set here for values at or beyond the usual limits of such assays; details: source organism: Salmonella enterica subsp. enterica serovar Typhi
[3] = target: HLA-A*24:02; experiment: as above; details: source organism: Salmonella enterica subsp. enterica serovar Typhi
[4] = target: HLA-A*32:07; experiment: as above
[5] = target: HLA-B*15:01; experiment: as above
[6] = target: HLA-B*15:42; experiment: as above
[7] = target: HLA-B*27:05; experiment: as above; details: source organism: Salmonella enterica subsp. enterica serovar Typhi
[8] = target: HLA-B*27:20; experiment: as above
[9] = target: HLA-B*39:01; experiment: as above; details: source organism: Salmonella enterica subsp. enterica serovar Typhi
[10] = target: HLA-B*40:13; experiment: as above
[11] = target: HLA-B*45:06; experiment: as above
[12] = target: HLA-B*83:01; experiment: as above
[13] = target: HLA-C*06:02; experiment: IEDB peptide-MHC binding, purified MHC/direct/fluorescence; filed as Kd, often an IC50 or EC50 that approximates it; ≥ and ≤ were set here for values at or beyond the usual limits of such assays
[14] = target: HLA-C*15:02; experiment: as above; details: source organism: Yersinia pestis Nepal516
[15] = target: HLA-A*32:15; experiment: IEDB peptide-MHC binding, purified MHC/competitive/fluorescence; filed as Kd, often an IC50 or EC50 that approximates it; ≥ and ≤ were set here for values at or beyond the usual limits of such assays; details: source organism: Yersinia pestis Nepal516
[16] = target: HLA-A*68:23; experiment: as above; details: source organism: Yersinia pestis Nepal516
[17] = target: HLA-B*35:01; experiment: as above; details: source organism: Yersinia pestis Nepal516
[18] = target: HLA-C*04:01; experiment: as above; details: source organism: Yersinia pestis Nepal516
[19] = target: HLA-C*14:02; experiment: as above; details: source organism: Yersinia pestis Nepal516
[20] = target: HLA-A*01:01; experiment: IEDB peptide-MHC binding, purified MHC/direct/fluorescence; filed as Kd, often an IC50 or EC50 that approximates it; ≥ and ≤ were set here for values at or beyond the usual limits of such assays; details: source organism: Haemophilus influenzae
[21] = target: HLA-A*02:01; experiment: as above; details: source organism: Haemophilus influenzae
[22] = target: HLA-A*69:01; experiment: as above; details: source organism: Haemophilus influenzae
[23] = target: HLA-A*02:06; experiment: IEDB peptide-MHC binding, purified MHC/competitive/fluorescence; filed as Kd, often an IC50 or EC50 that approximates it; ≥ and ≤ were set here for values at or beyond the usual limits of such assays; details: source organism: Haemophilus influenzae
[24] = target: HLA-A*02:11; experiment: as above; details: source organism: Haemophilus influenzae
[25] = target: HLA-B*48:01; experiment: as above; details: source organism: Burkholderia mallei SAVP1
[26] = target: HLA-B*40:01; experiment: as above; details: source organism: Escherichia coli B7A
[27] = source organism: Salmonella enterica subsp. enterica serovar Typhi
[28] = source organism: Yersinia pestis Nepal516
[29] = source organism: Burkholderia mallei SAVP1

Sequence: KQLELFWVI
- Kd [1]: ≥ 20000 nM
- Kd [2]: ≤ 1 nM
- Kd [3]: 0.2 nM
- Kd [4, 27]: 1.1 nM
- Kd [5, 27]: 497 nM
- Kd [6, 27]: 2470 nM
- Kd [7]: 66.1 nM
- Kd [8, 27]: 1.3 nM
- Kd [9]: 6 nM
- Kd [10, 27]: 4.2 nM
- Kd [11, 27]: 833 nM
- Kd [12, 27]: ≥ 5000 nM

Sequence: MMMSTAVAF
- Kd [13, 28]: ≥ 20000 nM
- Kd [14]: ≥ 20000 nM
- Kd [4, 28]: 94.5 nM
- Kd [15]: 248 nM
- Kd [16]: 650 nM
- Kd [5, 28]: 541 nM
- Kd [6, 28]: ≥ 5000 nM
- Kd [17]: 0.6 nM
- Kd [10, 28]: 365 nM
- Kd [11, 28]: ≥ 5000 nM
- Kd [12, 28]: ≥ 5000 nM
- Kd [18]: 3230 nM
- Kd [19]: 1.1 nM

Sequence: YINMAWNLV
- Kd [20]: 625 nM
- Kd [21]: 135 nM
- Kd [22]: 639 nM
- Kd [23]: ≤ 0.1 nM
- Kd [24]: ≤ 0.1 nM

Sequence: RQYERYTAL
- Kd [13, 29]: 1810 nM
- Kd [4, 29]: 7.5 nM
- Kd [6, 29]: 733 nM
- Kd [8, 29]: 0.3 nM
- Kd [10, 29]: 37.7 nM
- Kd [11, 29]: ≥ 5000 nM
- Kd [25]: 55.2 nM
- Kd [12, 29]: ≥ 5000 nM

Sequence: GEHVPEIIL
- Kd [26]: 1.7 nM
